Experimental data: IntAct's records for PubMed 22056926

B1: Cell division protein ZapB (Escherichia coli (strain K12)), P0AF36 (parent)
chain: MTMSLEVFEKLEAKVQQAIDTITLLQMEIEELKEKNNSLSQEVQNAQHQREELERENNHLKEQQNGWQERLQALLGRMEEV
partner: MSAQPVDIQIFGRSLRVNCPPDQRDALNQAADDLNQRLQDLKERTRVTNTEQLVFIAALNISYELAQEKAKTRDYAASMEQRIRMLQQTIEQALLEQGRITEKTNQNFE

Variants of: B1
Conditions: with zapa_ecoli zapA

effect of a mutation on the interaction	Variant
decreasing interaction strength	S4A;L5A
decreasing interaction strength	K10A;L11A
decreasing interaction strength	F8A;E9A
